Measurements: US20080220446A1, “Method for Detecting and/or Removing Protein and/or Peptide Comprising a Cross-Beta Structure From an Aqueous Solution Comprising a Protein” (priority 2005, published 2008)

How the values were obtained:
[1] = Stability testing of biopharmaceuticals under denaturing conditions; assay type: physicochemical; conditions: after exposure to harsh denaturing conditions (low pH or heat)
Procedure: For this purpose, 5 mg/mL Glucagon (Glucagen; Novo Nordisk Farma B. V., Alphen aan de Rijn, The Netherlands) was incubated at 37° C. in 0.01 M HCl for 48 hours. One mg/mL Etanercept (Enbrel; Wyeth Pharmaceuticals B. V., Hoofddorp, The Netherlands) in 67 mM sodium phosphate buffer, 100 mM NaCl pH 7.0 was gradually heated from 30° C. to 85° C. over a period of 12 minutes and afterwards cooled to 4° C. for 5 minutes, this treatment was repeated 4 times. Abciximab (Reopro; Centocor B. V., Leiden, The Netherlands) and Infliximab (Remicade; Schering-Plough B. V., Utrecht, The Netherlands) were incubated at 65° C. for 16 and 72 hours, respectively.

[2] = target: T1, BiP (Homo sapiens, UniProt P11021); assay: Affinity determination ELISA, BiP on coated (mis)folded proteins; assay type: binding; conditions: coated protein as labelled
T1 construct: made in house; host or cells: HEK293E
T1 sequence (P11021 19-654): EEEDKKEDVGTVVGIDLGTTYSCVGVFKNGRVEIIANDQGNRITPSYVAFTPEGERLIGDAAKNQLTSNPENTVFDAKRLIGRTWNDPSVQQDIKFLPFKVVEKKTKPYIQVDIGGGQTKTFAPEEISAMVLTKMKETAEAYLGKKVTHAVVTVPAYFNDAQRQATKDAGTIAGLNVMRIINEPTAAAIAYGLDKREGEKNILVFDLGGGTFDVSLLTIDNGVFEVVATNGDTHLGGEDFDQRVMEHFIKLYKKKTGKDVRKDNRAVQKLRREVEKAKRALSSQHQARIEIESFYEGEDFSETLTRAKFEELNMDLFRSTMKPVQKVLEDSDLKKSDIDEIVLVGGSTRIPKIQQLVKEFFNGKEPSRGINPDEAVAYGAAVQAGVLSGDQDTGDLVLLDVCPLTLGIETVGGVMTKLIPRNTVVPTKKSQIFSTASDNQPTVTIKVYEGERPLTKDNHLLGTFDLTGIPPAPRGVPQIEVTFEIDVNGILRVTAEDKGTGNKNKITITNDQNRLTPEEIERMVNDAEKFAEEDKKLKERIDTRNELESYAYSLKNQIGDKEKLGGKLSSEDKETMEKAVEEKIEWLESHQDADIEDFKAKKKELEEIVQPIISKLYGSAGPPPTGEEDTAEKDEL
Text: (§1) Synthetic genes of human BiP, human fibronectin finger 4,5 (Fn F4,5) fragment, and human tissue-type plasminogen activator finger EGF (tPA F-EGF) fragment were ordered from Geneart (Regensburg, Germany). These DNA constructs were digested using BamHI and NotI, and ligated into vector pABC674 (ABC-expression facility, Utrecht University, The Netherlands), which contains a carboxy-terminal FLAG-tag—His-tag. HEK293E cells were transiently transfected with these constructs using the polyethylene-imine method, and grown for 5-6 days.
(§2) Denatured proteins and their native controls BSA (Sigma, A7906), glycated BSA, Hb (Sigma, H7605), glycated Hb, ovalbumin (Sigma, A6741), heat-denatured misfolded ovalbumin, human γ-globulins (Sigma, G4386), heat-denatured misfolded γ-globulins, alkyl-γ-globulins, lysozyme (ICN Biochemicals, 100831) and alkyl-lysozyme were coated on ELISA plates (Greiner Microlon high-binding, 655092) in 50 mM NaHCO3-buffer pH 9.6. The plates were blocked using Blocking reagent (Roche 1112589). […] Bound protein is detected by the FLAG-tag using 1:3000 anti-FLAG-HRP (Sigma A-8592) in PBS-T, or by 1:1000 Ni-NTA-HRP (Qiagen 34530) in PBS-T. The HRP reaction Is performed using the TMB substrate (Biosource 4501103 or Tebu Bio 101TMB100-500), stopped using 10% H2SO4 and absorbance was measured at 450 nm.

[3] = target: T2, LRP cl-IV (Homo sapiens, UniProt Q07954); assay: ELISA, LRP cluster IV binding to misfolded proteins; conditions: coated at 5 μg/ml
T2 construct: Cluster IV of the low-density lipoprotein (LDL) receptor-related protein (LRP cl-IV); made in house; host or cells: HEK293E/S
T2 sequence (Q07954 3332-3778): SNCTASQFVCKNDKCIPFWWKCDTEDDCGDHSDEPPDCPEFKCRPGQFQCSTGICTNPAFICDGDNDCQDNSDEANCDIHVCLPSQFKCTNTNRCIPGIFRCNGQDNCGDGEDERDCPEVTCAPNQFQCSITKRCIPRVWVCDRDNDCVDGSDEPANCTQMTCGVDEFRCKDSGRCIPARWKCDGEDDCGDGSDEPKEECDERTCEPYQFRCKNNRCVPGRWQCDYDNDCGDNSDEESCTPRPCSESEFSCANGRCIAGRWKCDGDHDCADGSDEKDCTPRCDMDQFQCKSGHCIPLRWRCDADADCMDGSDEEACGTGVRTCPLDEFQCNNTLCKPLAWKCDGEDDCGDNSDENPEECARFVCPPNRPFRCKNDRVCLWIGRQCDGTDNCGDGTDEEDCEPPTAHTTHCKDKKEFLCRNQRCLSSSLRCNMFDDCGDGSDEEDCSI
Procedure: Binding of LRP cl-IV to misfolded protein was determined using an enzyme linked immuno sorbent assay (ELISA) set-up. For this purpose 50 μl of a 5 μg/ml solution of BSA, BSA-AGE, Hb or Hb-AGE or coat buffer (for negative control) was coated for 1 h with motion. Proteins were diluted in coat buffer (100 mM NaHCO3 pH 9.6). The BSA and Hb controls were prepared freshly by dissolving proteins at 1 mg/ml in PBS by rolling for 10 minutes on a roller bank at room temperature, 10 minutes incubation at 37° C. followed by again 10 minutes incubation at the roller bank. Coat controls were performed with anti-glycated protein antibody 4B5, anti-albumin antibody or anti Hb antibody. After coating the plates were washed twice with PBS/0.1% Tween-20 (v/v) and blocked with 300 μl/well blocking reagent (Roche Diagnostics, Almere, The Netherlands) for 1 h at room temperature with motion. […] After five washes with wash buffer binding of antibody was assessed with a secondary antibody. […] After 5 washes with wash buffer, binding of anti-FLAG antibody and secondary antibodies was assessed with 100 μl/well TMB substrate (ready to use from Tebu Bio). […] After ˜2 minutes absorbance was read at 450 nm.

[4] = target: T3, tPA F-EGF (Homo sapiens, UniProt P00750); assay: Affinity determination ELISA, tPA F-EGF on coated (mis)folded proteins; assay type: binding; conditions: coated protein as labelled, relative to native control
T3 construct: made in house; host or cells: HEK293E
T3 sequence (P00750 36-120 limits assumed): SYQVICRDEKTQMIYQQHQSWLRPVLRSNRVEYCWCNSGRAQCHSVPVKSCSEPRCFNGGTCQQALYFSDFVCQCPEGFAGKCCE
Text: as §1, §2

| binding of BiP [2] | binding of LRP cl-IV [3] | binding of tPA F-EGF [4] | Substance | amyloid-like properties (ThT-fluorescence and tPA activation) [1] |
| --- | --- | --- | --- | --- |
| – | – | – | Abciximab: abciximab, an inhibitor of blood platelet aggregation (ReoPro, Centocor) | amyloid-like properties are adopted |
| high affinity | binds specifically | High binding affinities | albumin-AGE: advanced glycation end-product modified bovine serum albumin | – |
